Results taken from paper PMC4759549.

Experiments:
[1] = molecular target: STY3178, a yfdX protein from Salmonella Typhi (Salmonella Typhi (CT18)); test: SEC
[2] = molecular target: STY3178, a yfdX protein from Salmonella Typhi (Salmonella Typhi (CT18)); test: NMR relaxation (1D 1H-15N T1 and T2, rotational correlation time)

STY3178, a yfdX protein from Salmonella Typhi (natural protein)
stoichiometry N [1]: 3 | stoichiometry N [2]: 3
